Reference: PMC12550018, “High-resolution native electrophoresis in-gel activity assay reveals biological insights of medium-chain fatty acyl-CoA dehydrogenase deficiency” (Scientific Reports, 2025)

How the values were obtained:
[1] = biological target: the molecule itself; test: SEC; Superdex 200 5/150 GL, 2 mg/ml protein, 0.1 ml PBS/min, 5 °C, absorbance at 280 nm; mass by calibration with protein standards
[2] = biological target: the molecule itself; test: native gel or EMSA; high-resolution clear native PAGE (hrCN-PAGE) of purified recombinant protein, 4-16% or 4-20% gradient gels, pH 7.0, cathode buffer with 0.05% sodium deoxycholate and 0.01% n-dodecyl-beta-D-maltoside; Coomassie, FAD fluorescence and acyl-CoA:NBT in-gel activity staining

Row | Protein | stoichiometry N [1] | binding result [2]
1 | Medium-chain specific acyl-CoA dehydrogenase (MCAD), human recombinant wild type (enzyme, UniProt P11310-1 26-421, looked up, Medium-chain specific acyl-CoA dehydrogenase (MCAD), human, encoded by ACADM; One FAD per monomer; also called MCAD WT; human recombinant MCAD; not shown: MBP, N-terminal, cleaved) KANRQREPGLGFSFEFTEQQKEFQATARKFAREEIIPVAAEYDKTGEYPVPLIRRAWELGLMNTHIPENCGGLGLGTFDACLISEELAYGCTGVQTAIEGNSLGQMPIIIAGNDQQKKKYLGRMTEEPLMCAYCVTEPGAGSDVAGIKTKAEKKGDEYIINGQKMWITNGGKANWYFLLARSDPDPKAPANKAFTGFIVEADTPGIQIGRKELNMGQRCSDTRGIVFEDVKVPKENVLIGDGAGFKVAMGAFDKTRPVVAAGAVGLAQRALDEATKYALERKTFGKLLVEHQAISFMLAEMAMKVELARMSYQRAAWEVDSGRRNTYYASIAKAFAGDIANQLATDAVQILGGNGFNTEYPVEKLMRDAKIYQIYEGTSQIQRLIVAREHIDKYKN | 4 | 
2 | MCAD variant p.R206C, human recombinant (enzyme, UniProt P11310-1 26-421, looked up, MCAD, human, encoded by ACADM, clinically relevant variant p.R206C made by site-directed mutagenesis in pMALc2X; masses fit the mature protein (26-421); The residue number counts on the precursor; Native MS: only three FAD per tetramer; also called MCAD R206C; not shown: MBP, N-terminal, cleaved) KANRQREPGLGFSFEFTEQQKEFQATARKFAREEIIPVAAEYDKTGEYPVPLIRRAWELGLMNTHIPENCGGLGLGTFDACLISEELAYGCTGVQTAIEGNSLGQMPIIIAGNDQQKKKYLGRMTEEPLMCAYCVTEPGAGSDVAGIKTKAEKKGDEYIINGQKMWITNGGKANWYFLLACSDPDPKAPANKAFTGFIVEADTPGIQIGRKELNMGQRCSDTRGIVFEDVKVPKENVLIGDGAGFKVAMGAFDKTRPVVAAGAVGLAQRALDEATKYALERKTFGKLLVEHQAISFMLAEMAMKVELARMSYQRAAWEVDSGRRNTYYASIAKAFAGDIANQLATDAVQILGGNGFNTEYPVEKLMRDAKIYQIYEGTSQIQRLIVAREHIDKYKN | 4 | 
3 | MCAD variant p.K329E, human recombinant (enzyme, UniProt P11310-1 26-421, looked up, MCAD, human, encoded by ACADM, clinically relevant variant p.K329E made by site-directed mutagenesis in pMALc2X; masses fit the mature protein (26-421); The residue number counts on the precursor; also called MCAD K329E; not shown: MBP, N-terminal, cleaved) KANRQREPGLGFSFEFTEQQKEFQATARKFAREEIIPVAAEYDKTGEYPVPLIRRAWELGLMNTHIPENCGGLGLGTFDACLISEELAYGCTGVQTAIEGNSLGQMPIIIAGNDQQKKKYLGRMTEEPLMCAYCVTEPGAGSDVAGIKTKAEKKGDEYIINGQKMWITNGGKANWYFLLARSDPDPKAPANKAFTGFIVEADTPGIQIGRKELNMGQRCSDTRGIVFEDVKVPKENVLIGDGAGFKVAMGAFDKTRPVVAAGAVGLAQRALDEATKYALERKTFGKLLVEHQAISFMLAEMAMEVELARMSYQRAAWEVDSGRRNTYYASIAKAFAGDIANQLATDAVQILGGNGFNTEYPVEKLMRDAKIYQIYEGTSQIQRLIVAREHIDKYKN | 4 | 
4 | MCAD variant p.Y67H, human recombinant (enzyme, UniProt P11310-1 26-421, looked up, MCAD, human, encoded by ACADM, clinically relevant variant p.Y67H made by site-directed mutagenesis in pMALc2X; masses fit the mature protein (26-421); The residue number counts on the precursor; also called MCAD Y67H; not shown: MBP, N-terminal, cleaved) KANRQREPGLGFSFEFTEQQKEFQATARKFAREEIIPVAAEHDKTGEYPVPLIRRAWELGLMNTHIPENCGGLGLGTFDACLISEELAYGCTGVQTAIEGNSLGQMPIIIAGNDQQKKKYLGRMTEEPLMCAYCVTEPGAGSDVAGIKTKAEKKGDEYIINGQKMWITNGGKANWYFLLARSDPDPKAPANKAFTGFIVEADTPGIQIGRKELNMGQRCSDTRGIVFEDVKVPKENVLIGDGAGFKVAMGAFDKTRPVVAAGAVGLAQRALDEATKYALERKTFGKLLVEHQAISFMLAEMAMKVELARMSYQRAAWEVDSGRRNTYYASIAKAFAGDIANQLATDAVQILGGNGFNTEYPVEKLMRDAKIYQIYEGTSQIQRLIVAREHIDKYKN | 4 | 
5 | Glutaryl-CoA dehydrogenase (GCDH), human recombinant wild type (enzyme, UniProt Q92947 45-438, looked up, Glutaryl-CoA dehydrogenase, human, wild type; source: purified by a procedure similar to that for MCAD (E. coli, MBPTrap, TEV digestion, SEC)) RPEFDWQDPLVLEEQLTTDEILIRDTFRTYCQERLMPRILLANRNEVFHREIISEMGELGVLGPTIKGYGCAGVSSVAYGLLARELERVDSGYRSAMSVQSSLVMHPIYAYGSEEQRQKYLPQLAKGELLGCFGLTEPNSGSDPSSMETRAHYNSSNKSYTLNGTKTWITNSPMADLFVVWARCEDGCIRGFLLEKGMRGLSAPRIQGKFSLRASATGMIIMDGVEVPEENVLPGASSLGGPFGCLNNARYGIAWGVLGASEFCLHTARQYALDRMQFGVPLARNQLIQKKLADMLTEITLGLHACLQLGRLKDQDKAAPEMVSLLKRNNCGKALDIARQARDMLGGNGISDEYHVIRHAMNLEAVNTYEGTHDIHALILGRAITGIQAFTASK |  | binds
